The values below come from patent US20250376501A1.

Common to all, as to experiment: Gator BLI, hTSLP mutant from CHO cells against 3H10-biotin
Test [1] has as its target hTSLP-K23A (human) (UniProt Q969D9).
Test [2] deals with hTSLP-L133A (human) (UniProt Q969D9).
Test [3] concerns the target hTSLP-L27A (human) (UniProt Q969D9).
In test [4] the target is hTSLP-R131A (human) (UniProt Q969D9).
Test [5] concerns the target hTSLP-D18A (human) (UniProt Q969D9).
In test [6] the target is hTSLP-E20A (human) (UniProt Q969D9).
Sequence of hTSLP-E20A (human) (Q969D9 29-159 R127A/R130A): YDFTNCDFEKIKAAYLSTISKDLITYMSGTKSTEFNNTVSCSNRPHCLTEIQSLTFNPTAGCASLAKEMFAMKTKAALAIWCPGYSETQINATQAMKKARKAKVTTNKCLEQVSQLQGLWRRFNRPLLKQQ
The target in test [7] is hTSLP-K21A (human) (UniProt Q969D9).
Sequence of hTSLP-K21A (human) (Q969D9 29-159 R127A/R130A): as above
The target in test [8] is hTSLP-K32A (human) (UniProt Q969D9).
Sequence of hTSLP-K32A (human) (Q969D9 29-159 R127A/R130A): as above
Test [9] addresses hTSLP-N130A (human) (UniProt Q969D9).
The target of test [10] is hTSLP-R127A (human) (UniProt Q969D9).
Sequence of hTSLP-R127A (human) (Q969D9 29-159 R127A/R130A): as above
Test [11] deals with hTSLP-R55A (human) (UniProt Q969D9).
Sequence of hTSLP-R55A (human) (Q969D9 29-159 R127A/R130A): as above
The target in test [12] is hTSLP-S43A (human) (UniProt Q969D9).
Sequence of hTSLP-S43A (human) (Q969D9 29-159 R127A/R130A): as above
Test [13] concerns the target hTSLP-S28A (human) (UniProt Q969D9).
Test [14] has as its target hTSLP-K135A (human) (UniProt Q969D9).

Sequence of hTSLP-L27A (human) (Q969D9 29-159 R127A/R130A): as above
Sequence of hTSLP-D18A (human) (Q969D9 29-159 R127A/R130A): as above
Sequence of hTSLP-K135A (human) (Q969D9 29-159 R127A/R130A): as above
Sequence of hTSLP-N130A (human) (Q969D9 29-159 R127A/R130A): as above
Sequence of hTSLP-L133A (human) (Q969D9 29-159 R127A/R130A): as above
Sequence of hTSLP-S28A (human) (Q969D9 29-159 R127A/R130A): as above
Sequence of hTSLP-K23A (human) (Q969D9 29-159 R127A/R130A): as above
Sequence of hTSLP-R131A (human) (Q969D9 29-159 R127A/R130A): as above

B1: 3H10-biotin protein (designed binder)
chain: GSHMDLGKKLLEAAWAGRDDEVRILMANGADVNAGDASGDTPLHLAAFSGHLEIVEVLLKHGADVNAEDLLGMTPLHLAAPFGHLEIVEVLLKHGADVNAAARNNGKTPLHLAAFVGHLEIVEVLLKNGADVNAQDKFGKTAFDISIDNGNEDLAEILQKLNG
modifications: biotin (site not stated)
Regarding B1, the Decreased fold in binding affinity compared to wild-type TSLP in [1] was 2.4 fold; in test [2], 2.05 fold; in test [3], 9.3 fold; in test [4], 2.1 fold; in [5], 7.9 fold; in test [6] it was 6.1 fold. For the same molecule, the Decreased fold in binding affinity compared to wild-type TSLP turned out to be 11.9 fold in [7]; 1.2 fold in [8]; 2.2 fold in test [9]; 1.8 fold in test [10]; 0.5 fold in test [11]; 5 fold in test [12]. The Decreased fold in binding affinity compared to wild-type TSLP is 5.1 fold in test [13] and 1.7 fold in [14].
